From PMC1361355 (2006)

B1: ephrinB3-Fc (soluble Fc-fusion ephrin protein, purchased) (Fc fusion)
chain: LSLEPVYWNSANKRFQAEGGYVLYPQIGDRLDLLCPRARPPGPHSSPNYEFYKLYLVGGAQGRRCEAPPAPNLLLTCDRPDLDLRFTIKFQEYSPNLWGHEFRSHHDYYIIATSDGTREGLESLQGGVCLTRGMKVLLRVGQSPRGGAVPRKPVSEMPMERDRGAAHSLEPGKENLPGDPTSNATSRGAEGPLPPPSMP
B2: ephrinB2-Fc (soluble Fc-fusion ephrin protein, purchased) (Fc fusion)
chain: RSIVLEPIYWNSSNSKFLPGQGLVLYPQIGDKLDIICPKVDSKTVGQYEYYKVYMVDKDQADRCTIKKENTPLLNCARPDQDVKFTIKFQEFSPNLWGLEFQKNKDYYIISTSNGSLEGLDNQEGGVCQTRAMKILMKVGQDASSAGSARNHGPTRRPELEAGTNGRSSTTSPFVKPNPGSSTDGNSAGHSGNNLLGSEVA

Target: T1, NiV-G-Fc, a fusion construct between the ectodomain of NiV-G and the Fc region of human IgG1 (Nipah virus, UniProt Q9IH62 71-602)
T1 chain: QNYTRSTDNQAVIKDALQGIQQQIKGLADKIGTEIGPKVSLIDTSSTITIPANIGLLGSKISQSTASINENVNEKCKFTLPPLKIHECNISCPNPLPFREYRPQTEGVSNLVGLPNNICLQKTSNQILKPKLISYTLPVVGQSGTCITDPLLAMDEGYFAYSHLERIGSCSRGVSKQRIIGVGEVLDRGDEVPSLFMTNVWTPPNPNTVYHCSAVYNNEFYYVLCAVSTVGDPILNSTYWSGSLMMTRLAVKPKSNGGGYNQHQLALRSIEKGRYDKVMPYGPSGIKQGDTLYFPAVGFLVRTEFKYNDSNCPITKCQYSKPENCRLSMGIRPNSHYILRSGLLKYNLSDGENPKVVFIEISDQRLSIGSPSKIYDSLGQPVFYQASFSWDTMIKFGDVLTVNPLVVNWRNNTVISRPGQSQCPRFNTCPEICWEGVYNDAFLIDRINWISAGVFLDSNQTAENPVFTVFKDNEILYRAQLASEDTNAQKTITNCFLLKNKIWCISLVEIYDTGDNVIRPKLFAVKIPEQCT
Experiment: SPR

Binder | Kd [nM]
B1 | 2.83
B2 | 0.11
